Target: BCMA (B cell maturation antigen) protein on the cell surface of human multiple myeloma cells (human) (UniProt Q02223)
Assay: FACS on OPM-2 cells, Alexa488-labeled antibody

Chain of UniProt Q02223 (Q02223 whole entry N81S): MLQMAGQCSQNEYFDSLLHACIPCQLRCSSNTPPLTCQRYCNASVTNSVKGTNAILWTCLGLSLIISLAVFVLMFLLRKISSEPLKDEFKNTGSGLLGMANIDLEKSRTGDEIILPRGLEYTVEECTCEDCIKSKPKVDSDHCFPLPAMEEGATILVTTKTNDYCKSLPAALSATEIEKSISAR

anti-BCMA antibody MAB193 (clone 335004, rat IgG2a, R&D Systems #MAB193)
Mean Fluorescence Signal: 371

anti-BCMA antibody Vicky-1 (rat IgG1, GeneTex #GTX17323)
Mean Fluorescence Signal: 609
